Measurements taken from US20120207760A1.
Substitutions are numbered along the chain they refer to.

B1: 3243_J07 (antibody, V domains shown)
VH: QVQLQESGPGLLKPSDTLALTCTVSGGSITSDYWSWIRQPPGRGLDWIGFFYNGGSTKYNPSLKSRVTISADTSKNQLSLKLTSVTAADTGVYYCARHDVKFSGSYYVASWGQGTRVTVSS
VL: DIQMTQSPSSLSASVGDRVTISCRASQSISTYLNWYQQQPGKAPKVLISGATNLQSGVPSRFSGSGSGTDFTLTISSLQPEDFATYYCQQSYNTPLIFGQGTKLEIK
B2: 3259_J21 (antibody, V domains shown)
VH: QVQLQESGPRVVRPSETLSLTCTVSGGSISSYNWIWIRQPPGKGLEWIGHIYDYGRTFYNSSLQSRPTISVDASKNQLSLRLTSVTASDTAVYYCARPLGILHYYAMDLWGQGTTVTVSS
VL: DIQMTQSPLSVSVSVGDRVTIACRASQSIDKFLNWYQQKPGKAPKLLIYGASNLHSGAPSRFSASGSGTDFTLTITNIQTEDFATYLCQQSFSVPAFGGGTKVEIK
B3: 3245_O19 (antibody, V domains shown)
VH: EVQLVESGGGLVQPGGSLRLSCTASGLSVSSTYMNWVRQAPGKGLEWVSVFYSETRTYYADSVKGRFTVSRHNSNNTLYLQMNSLRVEDTAVYYCARVQRLSYGMDVWGQGTTVTVSS
VL: DIQMTQSPSSLSASVGDRVTITCRASQSISTYLNWYQKRPGKAPKLLVYGASTLQSGVPSRFSGSGSGTDFTLTIASLQPEDSATYYCQQTYSIPLFGQGTRLEIK
B4: 3244_H04 (antibody, V domains shown)
VH: B3 VH with V87A
VL: B3 VL with T53S, T85V
B5: 3136_G05 (antibody, V domains shown)
VH: QVQLQESGPGLVKPSETLSLTCSVSGGSISSDFWSWIRQPPGKGLEWIGYVYNRGSTKYSPSLKSRVTISADMSKNQFSLNMSSVTAADTAVYYCAKNGRSSTSWGIDVWGKGTTVTVSS
VL: DIQMTQSPSSLSASVGDRLTITCRASQSISTYLHWYQQKPGKAPKLLIYAASSLQSGVPSRFSGSRSGTDFTLTISSLQPDDFATYYCQQSYSPPLTFGPGTKVDMK
B6: 3252_C13 (antibody, V domains shown)
VH: QVQLQESGPGLVKPSETLSLTCTVSGASISSDYWSWIRLPPGKGLEWIGYIYNRGSTKYTPSLKSRVTISLDTAENQFSLRLRSVTAADTAIYYCARHVGGHTYGIDYWGQGTLVTVSS
VL: DIQMTQSPSSLSASVGDRVTITCRASQSISNYLNWYQHKPGEAPKLLNYAASSLQSGVPSRFSASGSGTDFTLTISSLQPEDFATYYCQQSYNTPITFGQGTRLEIK
B7: 3255_J06 (antibody, V domains shown)
VH: B6 VH with I92V
VL: B6 VL with T74S, S77G, Q100P
B8: 3420_I23 (antibody, V domains shown)
VH: QVQLQESGPGLVKPSETLSVTCKVSGDSISSYSWSWIRQPPGKGLEWVGYLYYSGSTKYNPSLKSRTTISVDTSTNQLSLKLSFVTAADTAVYFCARTGSESTTGYGMDVWGQGTTVTVSS
VL: B6 VL with N31T, H38Q, E42K, N48I, Q55H, A64G, T72A, N93S, T94P
B9: 3139_P23 (antibody, V domains shown)
VH: QVQLQESGPRLVKPSESLSLTCTVSGGSISNSFWGWIRQPPGEGLEWIGYVYNSGNTKYNPSLKSRVTISRDTSKSQLYMKLRSVTAADTAVYYCARHDDASHGYSISWGHGTLVTVSS
VL: DIQMTQSPSSLSASVGDRVTITCRASQTISTYLNWYQQKSGKAPKLLIYAASGLQSGVPSRFSGSGSGTDFTLTISSLQPEDFATYFCQQSYNTPLTFGQGTKVEIK
B10: 3248_P18 (antibody, V domains shown)
VH: QVQLQESGPGLVKPSETLSLTCTVSGGSISAYHWSWIRQPPGKGLEWIGHIFDSGSTYYNPSLKSRVTISLDASKNQLSLRLTSVTASDTAIYYCARPLGSRYYYGMDVWGQGTTVTVSS
VL: DIQMTQSPSSLSASVGDRVTITCRASQSISRYLNWYQQKPGKAPKLLIYGASTLQNGAPSRFSGSGSGTDFTLTISSLQPEDSATYLCQQSYSVPAFGGGTKVEVK
B11: 3253_P10 (antibody, V domains shown)
VH: B1 VH with V100A
VL: B1 VL with N53D
B12: 3260_D19 (antibody, V domains shown)
VH: DMQLVESGGGLVPPGGSLRLSCAASGFSVSDNYINWVRQAPGKGLDWVSVFYSADRTSYADSVKGRFTVSSHDSKNTVYLQMNSLRAEDTAVYYCARVQKSYYGMDVWGQGTTVTVSS
VL: GIQMTQSPSSLSASVGDRVTITCRASQSISRYLNWYLQKPGKAPKLLISGASSLQSGVPSRFSGTGSGTEFTLTISSLQPEDFATYYCQQTFSIPLFGQGTKVEIK
B13: 3362_B11 (antibody, V domains shown)
VH: QVQLQASGPGLVKPSETLSLTCTVSGDSITSGAYYWTWIRQHPGKGLEWIGYIYYSGNTYYNPSLKSRVTISLDTSKNQFSLKVNSVTAADTAVYYCARAASTSVLGYGMDVWGQGTTVTVSS
VL: B6 VL with N31R, H38Q, K39E, E42K, N48V, A64G, N93S, I96L
B14: 3242_P05 (antibody, V domains shown)
VH: B12 VH
VL: B12 VL
B15: 3241_G23 (antibody, V domains shown)
VH: QVQLQQSGPGLVKPSQTLSLTCTVSGGPVSGGGYSWNWIRQRPGQGLEWVGFMFHSGSPRYNPTLKSRITISVDTSKNLVSLKLSSVTAADTAVYFCARVGQMDKYYAMDVWGQGTTVTVSS
VL: DIQMTQSPSSLSSSVGDRVTITCRASQSIGAYVNWYQQKAGKAPQVLIFGASNLQSGVPSRFSGSGSGTDFTLTISSLQPEDFATYFCQQTYSTPITFGQGTRLEIK
B16: 3244_I10 (antibody, V domains shown)
VH: B1 VH with V100A
VL: B1 VL with S49F
B17: TCN-537 (3194_D21) (antibody, V domains shown)
VH: QVQLQQWGSGLLKPSETLSLTCAVYGGSFRDDYWTWIRQPPGKGLEWIGEINHSGRTNYNPSLKSRVTISVDTSLKQFSLKVISVTAADTAVYYCARGTSHVSRYFDWLPPTNWFDPWGQGTQVTVSS
VL: DIVLTQSPGTLSLSPGERATLSCRASQSVSSSYLAWYQQKPGQAPRLVMYGAATRATGIPDRFSGSGSGPDFTLTISRLEPEDFAMYYCQQYGNSPITFGQGTRLEIK
B18: TCN-544 (5082_A19) (antibody, V domains shown)
VH: QVQLQESGPGLVKPSETLSLTCTVSRGSIGHYFWSWIRQPPGKGLEWIGYISYSGSTKYNPSLRSRVTISVDTSKNQFSLNLNSVTATDTALYYCAREDYDILTGAGPGMEVWGQGTTVTVSS
VL: QSMLTQPPSASGTPGQRVTISCSGSSSNIGSNTVNWFKHLPGTAPKLLIYRNDLRPSGVPDRFSGSKSGTSASLAISGLQSEDEADYYCATWDDSLNGFYVFGTGTKVTVL
B19: TCN-549 (5092_P04) (antibody, V domains shown)
VH: QVQLVQSGAEVKKPGASVKVSCKASGYTFTGYYMHWVRQAPGQGLEWMGWINPNSGDTNYAQKFQGRVTMTRDTSITTAYMELSSLRSDDTAVYYCARDSPYSSSWSFFDYWGQGPLVTVSS
VL: not shown
B20: TCN-543 (5081_G23) (antibody, V domains shown)
VH: QVHLVQSGAEVRKPGDSVKVSCKTSGYTFSTYPVAWVRQVPGQGLEWMGWISTYNGNTNFAQNFQGRVTLTTDTTTNTAYMEVRSLKFDDTAVYYCARVEGSYRDFWNNQNRFDPWGQGTLVTVSS
VL: SYVLTQPPSVSVAPGQTARISCGGSNIGGKSVHWYQQKPGQAPVLVVYDDSGRPSGIPERFSGSNSGDTATLTISRVEAGDEADYFCQVWDNFGGVFGTGTKVTVL

The binders below were run against M2 protein of influenza A/Hong Kong/483/97 (H5N1) (Influenza A virus A/Hong Kong/483/97) (assay: not given). Details: not given.
With B1 the FACS M2-HK MFI was 131 MFI.
With B2 the FACS M2-HK MFI was 1670 MFI.
For B3, the FACS M2-HK MFI was 919 MFI.
B4 gave an FACS M2-HK MFI of 963 MFI.
B5 was tested, and the FACS M2-HK MFI was 109 MFI.
B6 was tested, and the FACS M2-HK MFI was 449 MFI.
B7 gave an FACS M2-HK MFI of 442 MFI.
B8 showed an FACS M2-HK MFI of 112 MFI.
Binder B9 has an FACS M2-HK MFI of 110 MFI.
With B10 the FACS M2-HK MFI was 967 MFI.
For B11, the FACS M2-HK MFI was 43 MFI.
B12 gave an FACS M2-HK MFI of 846 MFI.
B13 was tested, and the FACS M2-HK MFI was 218 MFI.
Binder B14 has an FACS M2-HK MFI of 596 MFI.
B15 was tested, and the FACS M2-HK MFI was 1700 MFI.
B16 was tested, and the FACS M2-HK MFI was 434 MFI.

These binders were tested against recombinant homotrimeric HA, A/swine/Ontario/01911-2/99 H4N6 (Influenza A virus A/swine/Ontario/01911-2/99 (H4N6)) (assay: trimeric HA microarray, transfection set 5). Details: remark: other sources report otherwise.
In the case of B17, the Trimeric HA Binding RLU is reported as 3280 RLU.

Each binder was assayed against recombinant homotrimeric HA, A/Japan/305/57 H2N2 (Influenza A virus A/Japan/305/57 (H2N2)) (assay: trimeric HA microarray, transfection set 5). Details: remark: other sources report otherwise.
Binder B17 has a Trimeric HA Binding RLU of 16200 RLU.
With B18 the Trimeric HA Binding RLU was 1000 RLU.
In the case of B19, the Trimeric HA Binding RLU is reported as 1080 RLU.

The binders below were run against recombinant homotrimeric HA, A/Wisconsin/67/05 H3N2 (Influenza A virus A/Wisconsin/67/05 (H3N2)) (assay: trimeric HA microarray, transfection set 5). Details: remark: other sources report otherwise.
In the case of B17, the Trimeric HA Binding RLU is reported as 1940 RLU.
Work on B20 yielded a Trimeric HA Binding RLU of 37000 RLU.
For B19, the Trimeric HA Binding RLU was 51600 RLU.

These binders were tested against recombinant homotrimeric HA, A/South Carolina/1/18 H1N1 (Influenza A virus A/South Carolina/1/18 (H1N1)) (assay: trimeric HA microarray, transfection set 5). Details: remark: other sources report otherwise.
B17 was tested, and the Trimeric HA Binding RLU was 46800 RLU.
Binder B20 has a Trimeric HA Binding RLU of 28300 RLU.
With B18 the Trimeric HA Binding RLU was 1330 RLU.

These binders were tested against recombinant homotrimeric HA, A/Solomon Islands/3/06 H1N1 (Influenza A virus A/Solomon Islands/3/06 (H1N1)) (assay: trimeric HA microarray, transfection set 5). Details: remark: other sources report otherwise.
Binder B20 has a Trimeric HA Binding RLU of 43500 RLU.
B18 gave a Trimeric HA Binding RLU of 997 RLU.
B19 gave a Trimeric HA Binding RLU of 640 RLU.

These binders were tested against recombinant homotrimeric HA, A/California/4/09 H1N1 (Influenza A virus A/California/4/09 (H1N1)) (assay: trimeric HA microarray, transfection set 5). Details: remark: other sources report otherwise.
B17 was tested, and the Trimeric HA Binding RLU was 33800 RLU.
B20 showed a Trimeric HA Binding RLU of 2340 RLU.
B18 was tested, and the Trimeric HA Binding RLU was 706 RLU.
Binder B19 has a Trimeric HA Binding RLU of 622 RLU.
